Patent publication US20210363177A1

Assays:
[1] = target: Trastuzumab (glycan-intact) (Homo sapiens)

% DOL 2 (fraction of antibody fully modified with 3-APA, LC-MS) [1] | % DOL 2 (fraction of antibody fully modified with 3-APA, LC-MS) (Pertuzumab) | % DOL 2 (fraction of antibody fully modified with 3-APA, LC-MS) (Panitumumab) | Substance
81% |  |  | Activa TI microbial transglutaminase (Ajinomoto) (enzyme)
 | 100% | 69% | recombinant Microbial transglutaminase from Zedira (catalog number T001) (enzyme)
